Legend:
[1] = molecular target: T1, human FIXa (activated coagulation factor IX) (human, UniProt P00740 47-191; P00740 227-461); assay: cell-based or functional assay
[2] = molecular target: T1, human FIXa (activated coagulation …); assay: ELISA, FIXa antigen coated on the plate, anti-mouse secondary antibody, OD450
Method: After culturing hybridoma cells for 7 days, ELISA was used for detecting positive antibodies. 0.1 μg/100 μl of FIXa antigen was coated on an ELISA plate (CORNING), incubated at 37° C. for 1.5 h; then blocked with 2% BSA at 37° C. for 1 h; and then primary antibody, the supernatant of cultured cells, was added and incubated at 37° C. for 1.5 h. After that, mouse secondary antibody was added and incubated at 37° C. for 30 min. Finally, chromogenic substrate TMB (Thermo) was added for 5 min at room temperature in dark, then stop solution 2M H₂SO₄ was added to terminate the reaction. Antibody-positive cell lines were screened according to the absorbance value measured at 450 nm by a spectrophotometer (Thermo Fisher scientific company). Then the cell lines were cultured for cloning in a semi-solid medium ([…] company), with single clones selected into 96-well plates after 7 days. […]
Following the instructions provided in the Sigma company's subtype detection kit, the antigen was coated, blocked, incubated with primary antibody (0.1 μg/100 μl), incubated with isotype-specific reagent at room temperature for 30 minutes, incubated with secondary antibody (R-antiGoat-HRP) for chromogen development, with stop solution added to terminate the reaction, and finally the absorbance was measured at 450 nm. […]

T1 sequence (P00740 47-191 limits assumed, chain 1 of 2): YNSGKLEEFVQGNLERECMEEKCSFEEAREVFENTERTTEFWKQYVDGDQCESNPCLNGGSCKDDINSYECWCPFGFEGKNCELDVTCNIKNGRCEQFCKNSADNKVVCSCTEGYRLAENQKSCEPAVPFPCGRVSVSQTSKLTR
T1 sequence (P00740 227-461 limits assumed, chain 2 of 2): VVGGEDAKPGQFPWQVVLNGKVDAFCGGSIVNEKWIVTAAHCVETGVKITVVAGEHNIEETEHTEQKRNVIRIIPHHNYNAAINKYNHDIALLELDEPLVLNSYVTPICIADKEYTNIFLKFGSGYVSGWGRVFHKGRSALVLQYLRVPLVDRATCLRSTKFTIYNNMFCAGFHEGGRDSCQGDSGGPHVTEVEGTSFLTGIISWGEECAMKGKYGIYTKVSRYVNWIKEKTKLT

B1: FIXa-4 antibody (antibody, V domains shown)
VH: QVTLKESGPGILKPSQTLSLTCSFSGFSLNTPGMGVGWIRQPSGKGLEWLAHIWWDDDKYYNPSLKSQLTISKDTSRNQVFLKITSVDTADTATYYCARSDDVSYALDYWGQGTSVTVSS
VL: DIQMTQSPASLSASVGETVTITCRASENIDSYLAWYQQKQGKSPQLLVYNAKTLADGVPSRFSGSGSGTQFSLKIDSLQPEDFGSHYCQHHDGTTWTFGGGTKLEIK
notes: A subtype test is described, but the isotype and constant regions are not reported; also called anti-FIXa monoclonal antibody; FIX-4 antibody
[1]
  activated partial thromboplastin time (APTT), IC50: 7.71 µg/mL
  activated partial thromboplastin time (APTT), fold over control: 3.5 times
[2]
  EC50: 0.0947 µg/mL

Reference: patent US20240294668A1 (SHANGHAI SYNVIDA BIOTECHNOLOGY, published 2024)
